The target in this test is T1, mouse DLK1 (moDLK1) (mouse, UniProt Q09163).
T1 chain: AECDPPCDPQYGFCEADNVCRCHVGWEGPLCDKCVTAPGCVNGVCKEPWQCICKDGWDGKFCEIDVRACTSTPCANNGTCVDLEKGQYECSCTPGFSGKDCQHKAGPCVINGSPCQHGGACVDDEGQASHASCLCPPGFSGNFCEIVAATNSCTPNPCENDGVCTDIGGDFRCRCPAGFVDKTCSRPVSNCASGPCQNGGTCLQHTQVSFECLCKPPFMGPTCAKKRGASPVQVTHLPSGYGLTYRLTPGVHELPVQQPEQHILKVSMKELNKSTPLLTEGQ

This note sets out measurements from patent publication US20260297185 (published 2026).

B1: I18 (antibody, V domains shown)
VH: QVQLKESGPGLVAPSQSLSITCTVSGFSLILYGVHWVRQPPGKGLEWLGLIWAGGSTNYNSALMSRLSISKDNSKSQVFLKMNSLQTDDTAMYYCVRKHSNYLAMDYWGQGTSVTVSS
VL: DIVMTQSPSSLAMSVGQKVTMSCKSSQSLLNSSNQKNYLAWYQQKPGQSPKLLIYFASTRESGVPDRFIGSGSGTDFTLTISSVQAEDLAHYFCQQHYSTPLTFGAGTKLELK
On to B1, for which the binding result is on record as “no binding”.
